Experimental data from patent CN117924498A (UNIV SOUTHWEST MEDICAL, dated 2024).

Tests used:
human-siglec-15蛋白 = target: T1, human-siglec-15蛋白 (human, UniProt Q6ZMC9 20-263, biotinylated in the BLI assay and in phage panning (site not stated)); assay: BLI (Octet RED96), biotinylated siglec-15 on SA sensor, antibody at 5, 10, 20 μg/mL
T1 construct: Bought protein (Novoprotein for ELISA coating; biotinylated antigen from Obiosh for panning); The same entry is used for the plain and the biotinylated protein; also called hsiglec-15; siglec-15抗原
T1 sequence (looked up): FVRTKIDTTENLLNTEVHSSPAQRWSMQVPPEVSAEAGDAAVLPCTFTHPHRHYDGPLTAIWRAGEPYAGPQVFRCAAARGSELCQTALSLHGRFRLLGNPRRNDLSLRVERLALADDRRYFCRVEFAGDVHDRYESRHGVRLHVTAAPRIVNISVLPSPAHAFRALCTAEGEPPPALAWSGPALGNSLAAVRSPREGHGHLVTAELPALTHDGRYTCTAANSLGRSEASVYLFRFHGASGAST

B7-H3蛋白 = target: T2, B7-H3蛋白 (UniProt Q5ZPR3-2 29-245, limits assumed); assay: ELISA, antigen coated at 1 μg/mL
T2 sequence (looked up): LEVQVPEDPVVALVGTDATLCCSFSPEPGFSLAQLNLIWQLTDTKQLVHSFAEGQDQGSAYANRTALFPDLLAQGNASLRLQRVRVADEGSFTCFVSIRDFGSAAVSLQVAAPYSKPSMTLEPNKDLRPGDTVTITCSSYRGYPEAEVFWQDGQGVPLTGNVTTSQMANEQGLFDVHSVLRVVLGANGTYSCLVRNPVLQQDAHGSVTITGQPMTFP

Trop2蛋白 = target: T3, Trop2蛋白 (UniProt P09758 27-274); assay: ELISA, antigen coated at 1 μg/mL
T3 sequence (looked up): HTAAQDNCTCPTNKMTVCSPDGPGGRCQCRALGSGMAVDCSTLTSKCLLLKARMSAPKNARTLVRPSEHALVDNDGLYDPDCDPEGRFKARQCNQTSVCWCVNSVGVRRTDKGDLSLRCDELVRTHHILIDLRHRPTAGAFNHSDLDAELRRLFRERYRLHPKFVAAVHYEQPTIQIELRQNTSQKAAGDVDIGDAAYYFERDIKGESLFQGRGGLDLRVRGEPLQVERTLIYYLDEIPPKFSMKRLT

EphA2蛋白 = EphA2蛋白 (UniProt P29317 25-534, limits assumed); assay: ELISA, antigen coated at 1 μg/mL
CD24蛋白 = target: T4, CD24蛋白 (UniProt P25063 27-59); assay: ELISA, antigen coated at 1 μg/mL
T4 chain (looked up): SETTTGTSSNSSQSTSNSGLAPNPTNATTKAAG

Sequence of EphA2蛋白 (P29317 25-534 limits assumed): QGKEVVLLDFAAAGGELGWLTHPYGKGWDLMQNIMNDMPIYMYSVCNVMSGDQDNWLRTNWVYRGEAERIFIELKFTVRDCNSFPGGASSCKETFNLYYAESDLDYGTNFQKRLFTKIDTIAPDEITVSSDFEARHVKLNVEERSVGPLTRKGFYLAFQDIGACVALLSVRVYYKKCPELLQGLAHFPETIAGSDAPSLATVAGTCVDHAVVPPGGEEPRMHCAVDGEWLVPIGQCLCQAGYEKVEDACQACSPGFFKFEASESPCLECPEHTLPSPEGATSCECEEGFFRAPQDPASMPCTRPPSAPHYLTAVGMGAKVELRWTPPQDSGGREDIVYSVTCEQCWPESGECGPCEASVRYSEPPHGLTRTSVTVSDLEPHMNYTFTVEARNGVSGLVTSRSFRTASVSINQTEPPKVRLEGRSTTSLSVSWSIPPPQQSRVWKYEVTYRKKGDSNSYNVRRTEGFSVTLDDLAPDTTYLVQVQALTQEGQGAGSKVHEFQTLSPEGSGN

Kd (human-siglec-15蛋白): ~1 nM | binding result (B7-H3蛋白): no binding | binding result (Trop2蛋白): no binding | binding result (EphA2蛋白): no binding | binding result (CD24蛋白): no binding
B1: S131-IgG1 (antibody, V domains shown)
VH: QVQLQESGPGLVNPSGTLSLSCTVSGDSIRNWYSWVRQPPGKGLEWIGEIHDNGGTNHNPSLKSRVTMSVGKSTSQLSLILNSVTAADTAVYHCAREGLPDGLDIWGPGTMVTVSS
VL: SSELTQDPAVSVALGQTVRITCQGDSLRSYYASWYQRKPGQAPILVMYGQNNRPSGIPDRFSGSNSRNTASLTITGAQAEDEADYYCGSRDTSDYRVLFGGGTKLTVLG
notes: also called 抗siglec15-IgG1重组抗体S131-IgG1; 全人源抗siglec-15-IgG1抗体
